According to a protein production outcome set (Wang et al. 2014):

Test: label from the status in PepcDB records

Sequence	protein production
MSRILITGAAGMVGRALLEELDEHDVFATDLVPPKATGAVTWLPMDVTTDDPDRIVGEVRPQVVIHLASIVTPGVARAVAHRVDVGGTRAVLDACLAHGVRRLVVTSSGAAYGYHADNPMPLRESDPLRGNPEFAYADHKRQVEEILAEARQSAPQLEQVVLRVGTVLGAGTENQITALFRKPRLLAVRGSESPFVFIWTRDLARILARAAGEGPAGIYNVAGDGAMGVSDLARALGKPVLRLPALTLKAALALARPLGLSRYGPEQVRFLQYRPVLANDALKQVFGYVPELASAEVFDLWRREAGL	failed
MSRILVLAVVALALLNPLFLVVHSLPTGVSAHDGPIYTNAVLGYANITSLQAYNSSFNVPYGASLQLNVVLEATSTNGNTYYFWLQNVAQFVTNESLMCFTDNVWNYTTATAEISNVTGNGGIGFTYNILFGHPTFYGYSTEPMPYRFPLALYLLINESLSSNGVIVNFIYVVLQNGSLVPPHPVTYDSVFIPVPDPQSAYIIVNDSLTPSAVVLNFTLFYQEALGNLMDTELVWGGYENGEFTTFTQMSSYLGLFYLSGNSFVPFSTVYTYGNDTAESTGDLYVSIASNGDAYVTVGTPDYGLLTDSFHPYIPGFTFVNVTSKVPFLVNGTYTNSFVGYVVHPVTITFYRNYTVNSSSYAVLDYPSQSLTITPSNTFKNVIITPQYTYYYKVIVNSSRPLLLNISGKETLTNGTLWLPQGTSVSLVNNTYYVSSGERFVVNNTYPNLPLTVENPTTITVTLEKQFKLTINSPIPLLLSINGKSRLFNGTTWVLQGSAVELVNNTYYVSSGERYVVSSISPSTPIEVSGPMNISVELVKEYKVEIVSSQPVMATIKGETEPVNGTAWLPQGSVIHLTANLPVYLKGYFVGTYNASPGEQVTINGPIYEKLVVQLNYTFLEELVIPIVTAVVIVVAITRRR	failed
MSRQPLSREDTAILVPALNEALRIREVVTDALTYCSHVIVIDDGSDDGTAECIAGMPVTLIRHPQRMGKGAALRSGFAQAQRLGMRAVMTMDGDGQHKAADFPRLLAAANRHPGCVIIGARMRKRATQPTIRRIGNDFGDWGIAWGCGFRLIDSQSGQRLYPASVFTLPNVPGEGFVFEAQLLISAARQAGARVVAVPIETRYAGTSPGTFRKSHFRLVRDLWNITSHVVKQVWAYGHVWREYRRVRANPVIVDDPDGEFATVPAVTKSNHSSLEHHHHHH	failed
MSRRTVSLTVLALVLALLILVAPDVLLVIFAGVLFGVFLSAGGGLVQRVTGLQRGAGIALFIVLVLLALTGAFLAFAPAMFEQADALARQLPPAFEDLRDRISAYSWGPTLLSRLAPSRLLSSDGGFASTAVSATFGALGNVVIILFIGLYTAVDPGLYRRGLRALLAPPLRPRGDEVLAIADGTLRGWLGGQIISMTVVGVLTWLGLWLIGIPLAFILGLIAALLTFIPNIGPVLSAVPALLLALPEGAEQVGLVLAVFLTVQTFESYLVTPLIQKERVALPPALIISAQLLMGVLFGLMGLLLATPLAALALALVREVYVHDYLEEGPAKAQGPDRAD	failed
MSRSPRYTNFILIAVMLGALLPAAGCLEEHEVASAGLSSATMSVNLTYYTEQLPPYNYMENSMLQGLSVDLLEEITEKMGKKVTREEVHLVPWTEGYQAALNGNNTVLFSMARSPEREQFFKWAGPIYSDRYVLFAKRDRGITIKNPEDLKGYRIGVIADDIATRQLLDIGVNQSQIAPESNVSAIIAGLENGDIDLWACPEDAGRYFTEELTGSYYSYTVVYQLETQDLYYAFSKDVPDSVVQSFQQALDAVKREKDVEGISTYDRILGKYIPSIGLARLNYLTEEWAPFNYQEDGNVTGISVEILEAVFKNIGVNRSRADVRIVPLAEGFQIAQNNTSTVLFSIVRTPEREPFYKWAGPFTRANFVLYAPVSSNITISSPKDLNQYRIGAIRASIENDLLASQGVNESQIINGQTPEDLFRMLEEGQIDLWATGDLAGRHQMLRTAEDPNAYEIVYTLSENDFYYIFSKDVPDTLVSAFQQALDTVRDQRDEQGVSDYERIIYRNLGVGCAPQTFTDDTVMELVNTTVKAIEKNASDTFRRINAGEAPYRDSKDPGLYAFVYDTNLTIVAHADNIQLVGTNFRGKTDVTGKPFRDEILEGALKNGTGSVDYVYMHPVQTNLYYKTAYYRLTRGSDGNSYIVCSGNYKLCQNQSEAMPANNSTASPEELAAFVEKAFEYAHENGQEVALREFNNQAGQFVDGKFYIFAYDTNGTTLALPFQPEIIGTKRWNVTDTNGTLFIQDLVDTAQSGGGFVRYFYADPADNFTVKQKLSYVMMVNQSWIIGSGIYDPQKDSAIVRAGTDPQVRENLKSFVGEAIEYANTNGKDTAIEEFNDRNGAFVRGNLYIYAFDYNGTTLALPYQAQLIGTNLSELQDPYGVNYTKVEIFMAQQGGGFLFYHYYNPARNMTLEPKMSYVQKVDDTWWLGAGTYTEDLNRITKRD	failed
MSRTNINFNNKRTELANKIWDIFIANGYENTTLAFIINKLGISKGALYHYFSSKEECADAAIENRVAFFSNEVLKESEEGLNSIERLKKILLAGIKITSVNEQVKEINSPSNKIFHQKLMVAIIKYFAPIYADIISQGNEEGVFKVKYPLETAEIILTLSHFYLDEDLFKWKKEDMSLKLTAFKETLIKILDADEDTFDFIK	not failed
MSRTTASTCMGERRQSSLKRLAIFRPVQRLPARELLPLDGDRWLVAAQRREPERGPNGLGNGQRRPVQFRREVPGEHDVCIHIHRAVGFEDVIHDEPHPVGGLPFDDIRCGHIYALLGQSIGYVRVVSDADLDDGIDRRQSVDKRAGGVGHVVQFMRCGRICVPMHVDIVPVGEVSAQVKREASDGLRSVYDCEVSMHEPQSIPAGAYDGDRDQYRAEEFIDLARRVGSGGKNIAITPKDLFYRRRNYVFGLAYLGGSGSVISTYRLQTSSDGGFSNRSAGEIFSQRVRKEVVHEVGHTLGLEHCDNKRCVMNFSPTVRQVDVKEVSLCGSCQRNVL	failed
MSRVHNRALSAAELQSFGDELDAIRARVLSQVGAADARYIRRIVAAVRWTGVAGRALLFLGAFVHSVLIPAWIAGVLLLALSKILENMELGHNVMHGQYDWMGDPQLNGNTYEWDIVATGDNWRKTHNFKHHTYTNVRGMDDDIGYGLLRIFPEQRWRPFYLLQPFIAVVFALLFEWGVAIQDLRLGRWFAGKMKAAELRASFLPVGRKMGRQMLKDYIVFPLLAGPFFLTVLLGNLAANVLRSIWTFVIIFCGHFTADAEVFPKESIRNESRGHWYLRQLRGSSNLTGGKLMNVLSGNLSHQIEHHFYPDLPANRYAQIAVEVKQVCARYGQHYNTGSLPRQFGQVMWRIVRHAFPSRPKPVRQGSGALQSA	failed
MSSAKSARYNRFSGGPANLPASDSSGTRMETTFGPTFSTVTTITKAADGTSTYKQHRRTPSSSSTLAYSPRDEEDGMPPINTPRRSDSAISVRSLHSESSMSLRSTFSLPEEEEEPEPLVFAEQPSVKLCCQLCCSVFKDPVITTCGHTFCRRCALKSEKCPVDNAKLTVVVNNIAVAEQIGELFIHCRHGCRAAGTGKPGVFEVDPRGCPFTIKLSARKDHESSCDYRPVRCPNNPSCPPLLKMNLEAHLKECEHIKCPHSKYGCTFIGNQDTYETHLETCRFEGLKEFLQQTDDRFHEMHVALAQKDQEIAFLRSMLGKLSEKIDQLEKSLELKFDVLDENQSKLSEDLMEFRRDASMLNDELSHINARLNMGILGSYDPQQIFKCKGTFVGHQGPVWCLCVYSMGDLLFSGSSDKTIKVWDTCTTYKCQKTLEGHDGIVLALCIQGCKLYSGSADCTIIVWDIQNLQKVNTIRAHDNPVCTLVSSHNMLFSGSLKAIKVWDIVGTELKLKKELTGLNHWVRALVAAQSYLYSGSYQTIKIWDIRTLDCIHVLQTSGGSVYSIAVTNHHIVCGTYENLIHVWDIESKEQVRTLTGHVGTVYALAVISTPDQTKVFSASYDRSLRVWSMDNMICTQTLLRHQGSVTALAVSRGRLFSGAVDSTVKVWTC	failed
MSSAQFDHVTVIKKSNVYFGGLCISHTVQFEDGTKKTLGVILPTEQPLTFETHVPERMEIISGECRVKIADSTESELFRAGQSFYVPGNSLFKIETDEVLDYVCHLEG	not failed
MSSATASIKLSNGVEMPVIGLGTWQSSPAEVITAVKTAVKAGYRLIDTASVYQNEEAIGTAIKELLEEGVVKREELFITTKAWTHELAPGKLEGGLRESLKKLQLEYVDLYLAHMPAAFNDDMSEHIASPVEDVWRQFDAVYKAGLAKAVGVSNWNNDQISRALALGLTPVHNSQVELHLYFPQHDHVDFCKKHNISVTSYATLGSPGRVNFTLPTGQKLDWAPAPSDLQDQNVLALAEKTHKTPAQVLLRYALDRGCAILPKSIQENRIKENFEVFDFSLTEEDIAKLEESKNSQRLFLQDFMTGHPEDAFAAERK	not failed
MSSDHRDQYYWRAKRDQFRSRAAYKLEFLIERYGIIKDGQAVLEIGSSPGGWTQVLVDHGCRVVAVDIQPMDEIPGVIFLKLNILREDAAERIREEMARSLVQRFDVVLSDAMAKTSGIRSSDHAASVMIGNAVMKIAMDTLRRGGVAVVKQFQGDMTGDFIKNWGHYFRDHRITKPPASRKESSEVYIIFYGFSGKETDNSVQG	failed
MSSEVQKGPRALTVGRGDGRIWGMSSAERLARIYRRLDLVETPAVDLSHPVVAVDAGWVFDESLIKALAGREGAVLVDDAGRAVAVHAPADLAYAASEALAAGNDPAGLDPRFTRLTALELGSAYNSALRKREPPVLERLTPETVRAVEKRLFQGSYKGVTDFVTKYVWPAPARVVTRWCALAKMTPNQVTFIGFVMVLAATWLFWHGHFGWGLVCAWIMTFLDTVDGKLARVTLTSSKWGNVFDHGIDLVHPPFWWWAWFVGVYAVGQEIPYAALSLAIVVGGYVAQRVEEGIFLALFKLEMHAWRPFDSFFRLITARRNPNLILLTGCAMVGRPDLGFTLVAIWTAVCFVVHAIQILQGLMAPKGSIQSWLAK	failed
MSSFRSAWAGAPAGIAVARTGQSVPLLNAAAALAVAMAVGGWLSGARHASAIDATQIESWRAMVAQAMEPQALRQLRQLARGGSTPARTALGEALLDSRDASLRHEGVRWLEAAAQPADGAPGDARAQLALGKALLLGTGGVARDYPRALHLLRQAADRGDAAAAYYLGLMYRSGYGTAANTALAAHWFDGAARHGIPAAMFMLANAYRDGDGVPRDEARALALYEQAAEHELPEAVQALAMAYQNGELGLARDDAAFRKQWLETAHALKHPALTP	failed
MSSFSLAVRDSSTMLRRNLLHARRYPSLTLNLLLTPVMLLLLFVYIFGDTMSGGAGRSAYIAYIVPGILLMTIGSTTIGTAVSVSTDMNEGIIARFRTMAIHRSSVLFGHVAGSVLQAIMSVVLVGAVGVAMGFRSTDATVLEWLAAFGLLALFALAFTWIAVGMGLGSPNAEAASNNAMPLILLPLISSAFVPLDSMPGWFQPIAEYQPFTPAIETLRGLLLGTEIGNNWWIALAWCLGLTVLGHRWSKAQFNRDPK	failed
MSSKQWRWIPNALTFLRMVLIVPFAGALLEGNYRLSLVIFFVAALTDAFDGFLARHFNWRSRLGAVADPLADKALLISAYLMLTITGVLPLWLFALVLGRDLVIVCGGLAFHYGIGRFDMEPSIPGKINTFVQILVALAIIILLAGLPMQPWVIDTGIWLVAVSALVSGGHYVAVWSLRAWRAKRS	failed
MSSKRLVIVGGGITGLAAAYYAERAFPDLNITLLEAGERLGGKVATYREDGFTIERGPDSYVARKHILTDLIEAIGLGEKLVRNNTSQAFILDTGGLHPIPKGAVMGIPTDLDLFRQTTLLTEEEKQEVADLLLHPSDSLRIPEQDIPLGEYLRPRLGDALVEKLIEPLLSGIYAGNIDQMSTFATYPQFVANEQKAGSLFEGMRLMRPLDQLPQTPQTTIKATGQFLSLETGLESLIERLEEVLERSEIRLETPLLAISREDGRYRLKTDHGPEYADYVLLTIPHPQVVQLLPDAHLPELEQLTTHSTATVTMIFDQQQSLPIEGTGFVVNRRAPYSITACTAIDQKWNHSAPDHTVLRAFVGRPGNDHLVHESDEVLQQAVLQDLEKICGRTLEPKQVIISRLMDGLPAYTVGHADRIQRVREEVLAQYPGIYLAGLAYDGVGLPDCVASAKTMIESIELEQSHTDESVNET	not failed
